Source: patent US8815803B2, “Method for increasing body height comprising systemic administration of CNP-53” (priority 2004, dated 2014)
Where “and” joins values, the source holds several entries; their conditions need not be identical. Equal values may be shown once. Entries after “also recorded” stand apart in the source; their conditions may differ.

Key:
Assay type in all cases: in vivo
[1] = CNP expression in CNP transgenic mouse: CNP-22 EIA, liver
Method: (§1) A CNP-22 EIA measuring kit (PHOENIX PHARMACEUTICALS INC.) was used for the determination of a CNP level.
(§2) Three each of 7-week old male and female CNP transgenic mice, as well as 3 each of male and female normal litter of mice, were euthanized by exsanguination from the postcava under ether anesthesia.
The liver was homogenized in a Waring blender (Physcotron), and after centrifugation (at 2,000 rpm for 5 minutes), the supernatant was used as a sample for the determination of CNP-22 levels.

[2] = CNP expression in CNP transgenic mouse: CNP-22 EIA, blood plasma
Method: as §1, §2
One mg of ethylenediaminetetraacetate-4Na (Junsei Chemical Co., Ltd., Japan) and 2 trypsin-inhibition units of aprotinin (Sigma) were added to the drawn blood and agitated to separate blood plasma, which was used as a sample for the determination of CNP-22 levels.

[3] = system: growth cartilage of femora; assay: Histological analysis of the growth cartilage of CNP transgenic mouse; settings: 9-week old female CNP transgenic mice, patellar surface femur
Description: For the purpose of analyzing the thickness of the growth cartilage histologically, 5 each of 9-week old female CNP transgenic mice and female normal litter of mice were euthanized by exsanguination from the postcava under ether anesthesia, and the thigh bone was fixed in 20% formalin for a week. After soaking in a 20% aqueous solution of EDTA-4Na (pH 7.4) (Junsei Chemical Co., Ltd., Japan) for decalcification, the patellar surface femur was subjected to a midline sagittal section and embedded in paraffin by conventional method to prepare a paraffin block. A 4 μm-thick section was further sectioned with a microtome to prepare paraffin sections, which were stained with hematoxylin and eosin. For the thickness of the growth cartilage, one microscopic field observed using an objective lens (×10) was incorporated into an image analysis software (IPAP, Sumika Technoservice, Japan), and each thickness of the resting layer, proliferating layer and hypertrophic layer was measured at 5 points in the microscopic field using the same software, and the calculated mean value thereof was taken as the thickness of each layer of the individual. The total of the three layers was regarded as the thickness of the growth cartilage of the individual. […]

mice = assay: Growth curve of CNP transgenic mouse (naso-anal length)
Method: The naso-anal lengths (in cm) of female and male CNP transgenic mice, as well as those of female and male normal littermates, were measured on time over a period of 2 to 9 weeks (FIG. 4).

[4] = 7-week old CNP transgenic mice, individual animal, CNP-22 EIA
[5] = CNP transgenic mouse vs wild type, means compared

## CNP: C-type natriuretic peptide, a GC-B activator, overexpressed from murine CNP cDNA transgene in mice; measured with CNP-22 EIA kit
[1]; [4]
  CNP level, Liver: 370.0 ng/g tissue and 206.7 ng/g tissue and 293.3 ng/g tissue
[1]; 7-week old CNP transgenic mice, mean ± SD of No. 1-3, p < 0.01 vs wild type
  CNP level, Liver, mean ± SD: 290 ± 81.7 ng/g tissue
[1]; [5]
  CNP level in the liver, higher than the wild type: about 10 fold
[2]; [4]
  CNP level, Plasma: 11.1 ng/mL and 2.6 ng/mL and 10.3 ng/mL
[2]; 7-week old CNP transgenic mice, mean ± SD of No. 1-3
  CNP level, Plasma, mean ± SD: 8.0 ± 4.7 ng/mL
[2]; [5]
  CNP level in blood plasma, higher than the wild type: about 24 fold
[3]
  thickness of resting layer, proliferating layer, hypertrophic layer and total thickness of growth cartilage vs wild type: greater with statistical significance; also recorded: significantly greater
mice; female CNP transgenic mice, at 2 weeks old and thereafter
  naso-anal length vs normal litter (WT): significantly greater
mice; female and male CNP transgenic mice, over a period of 2 to 9 weeks
  naso-anal length vs normal littermates: greater than those of the normal littermates; also recorded: greater than those of the normal litter
mice; male CNP transgenic mice, at 4 weeks old and thereafter
  naso-anal length vs normal litter (WT): significantly greater
